The target of the test is T1, recombinant human EphA5 (rhEphA5) antigen (human, UniProt P54756 25-573).
T1 construct: also called human EphA5 (R and D systems, Cat. No. 3036-A5); recombinant EphA5
As to the kind of experiment: SPR single-cycle kinetics (Biacore T200), IgG from HEK supernatant captured on anti-human IgG CM5 chip, rhEphA5 as analyte, 1:1 fit. Further details: Relative KD: reference not given here. How it is done: Kinetic analysis was carried out on a Biacore T200. Each antibody was captured on a CM5 chip coupled with an anti-human IgG using standard amine chemistry before increasing concentrations of antigen were injected and a single off-rate was determined.
Kinetic experiments were performed at 25° C. on a Biacore T200 running Biacore T200 Control software V2.0.1 and Evaluation software V3.0 (Cytiva, Uppsala, Sweden).
HBS-P+ (Cytiva, Uppsala, Sweden), supplemented with 1% BSA (Sigma, Dorset, UK) was used as running buffer as well as for ligand and analyte dilutions. Supernatants containing IgG were diluted in running buffer to 1 μg/mL. At the start of each cycle, antibodies were loaded onto Fc2, Fc3 and Fc4 of an anti-human IgG CM5 sensor chip (Cytiva, Little Chalfont, UK). Ig were captured at a flow rate of […] to give an immobilization level (RL) of ˜60 RU. The surface was then allowed to stabilize.
Background: SPR reads the build-up and loss of mass on a sensor chip optically.

One may read the Kd as a measure of binding affinity in units of concentration. A word on the koff: it is a measure of how fast the partners let go of each other.

Positions count from the first letter of the chain named.

T1 sequence (P54756 25-573 limits assumed): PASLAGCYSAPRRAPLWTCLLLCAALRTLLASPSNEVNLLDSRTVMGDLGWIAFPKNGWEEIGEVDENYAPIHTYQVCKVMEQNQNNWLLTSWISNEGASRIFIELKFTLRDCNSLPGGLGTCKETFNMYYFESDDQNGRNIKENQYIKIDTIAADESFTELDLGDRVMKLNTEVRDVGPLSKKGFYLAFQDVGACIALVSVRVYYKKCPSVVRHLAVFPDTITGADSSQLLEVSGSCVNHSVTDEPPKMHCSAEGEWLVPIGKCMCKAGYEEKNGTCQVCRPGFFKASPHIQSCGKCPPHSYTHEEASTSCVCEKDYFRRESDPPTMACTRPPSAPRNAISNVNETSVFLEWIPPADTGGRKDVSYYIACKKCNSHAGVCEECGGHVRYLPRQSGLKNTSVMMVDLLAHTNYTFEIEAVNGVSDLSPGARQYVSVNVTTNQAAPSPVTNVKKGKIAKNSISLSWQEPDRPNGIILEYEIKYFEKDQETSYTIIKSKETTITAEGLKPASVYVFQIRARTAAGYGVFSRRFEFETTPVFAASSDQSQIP

B1: VH1/VK0 (antibody, human IgG1, kappa, V domains shown)
VH: EVTLVESGGGLVQPGGSRKLSCAASGFTFSTFGIHWVRQAPGKGLEWVAYISGASTTIYYADTVKGRFTISRDNSKNTLYLQMNSLRSEDTAMYYCARYGTSFPYGLDYWGQGTSVTVSS
VL: DIVMTQSPGSLAVSLGQRATISCKASQSVDYDGDSYMNWYQQKPGQPPKLLIYGASNLESGIPARFSGSGSGTDFTLNIHPVEEEDAASYYCQQSNEDPFTFGSGTKLEIKR
notes: tested as HEK supernatant; also called control antibody (humanized VH1 heavy chain with chimeric light chain)
Consider B1, for which the Kd was found to be 1.04 nM, the “Relative KD” value turned out to be 0.78 and the koff turned out to be 0.00127 s⁻¹.

B2: VH3/VK2 humanized 11C12 antibody (antibody, human IgG1, kappa)
heavy: not shown
light: DIVMTQSPDSLAVSLGERATINCKASQSVDYDGDSYMNWYQQKPGKAPKLLIYGASNLESGIPDRFSGSGSGTDFTLTISRLEPEDAASYYCQQSNEDPFTFGQGTKLEIKRTVAAPSVFIFPPSDEQLKSGTASVVCLLNNFYPREAKVQWKVDNALQSGNSQESVTEQDSKDSTYSLSSTLTLSKADYEKHKVYACEVTHQGLSSPVTKSFNRGEC
notes: Human IgG1/kappa; tested as HEK293 EBNA supernatant; also called H3K2
In the case of B2, the Kd is 0.968 nM, the “Relative KD” value came to 0.73 and the koff came to 0.0013 s⁻¹.

B3: VH3/VK1 humanized 11C12 antibody (antibody, human IgG1, kappa)
heavy: not shown
light: B2 light with D9G, P84E
notes: Human IgG1/kappa; tested as HEK293 EBNA supernatant; also called H3K1
Turning to B3, the Kd amounted to 0.884 nM, the “Relative KD” value came to 0.66 and the off-rate (koff) was found to be 0.00123 s⁻¹.

B4: VH6/VK5 humanized 11C12 antibody (antibody, human IgG1, kappa, V domains shown)
VH: B1 VH with T3Q, R18L, Y50S, T63S, S88A, M93V, S115L
VL: DIVMTQSPDSLAVSLGERATINCKSSQSVDYDGDSYMNWYQQKPGKAPKLLIYGASNLESGIPDRFSGSGSGTDFTLTISRLEPEDAAVYYCQQSNEDPFTFGQGTKLEIKR
notes: Human IgG1/kappa; tested as HEK293 EBNA supernatant; also called H6K5
In the case of B4, the Kd was determined as 7.1 nM, the “Relative KD” value turned out to be 5.34 and the koff came out at 0.285 s⁻¹.

B5: VH6/VK4 humanized 11C12 antibody (antibody, human IgG1, kappa, V domains shown)
VH: B1 VH with T3Q, R18L, Y50S, T63S, S88A, M93V, S115L
VL: B4 VL with V89S
notes: Human IgG1/kappa; tested as HEK293 EBNA supernatant; also called H6K4
As to B5, the Kd was 9.76 nM, the “Relative KD” value came to 7.34 and the koff stood at 0.209 s⁻¹.

B6: VH1/VK3 humanized 11C12 antibody (antibody, human IgG1, kappa)
heavy: not shown
light: B2 light with S89V
notes: Human IgG1/kappa; tested as HEK293 EBNA supernatant; also called H1K3
Take B6: the Kd was 0.948 nM, the “Relative KD” value amounted to 0.71 and the koff is 0.00125 s⁻¹.

B7: VH3/VK5 humanized 11C12 antibody (antibody, human IgG1, kappa)
heavy: not shown
light: B2 light with A25S, S89V
notes: Human IgG1/kappa; tested as HEK293 EBNA supernatant; also called H3K5
On to B7, for which the Kd worked out at 1.1 nM, the “Relative KD” value is 0.83 and the koff was found to be 0.00143 s⁻¹.

B8: VH1/VK1 humanized 11C12 antibody (antibody, human IgG1, kappa)
heavy: not shown
light: B2 light with D9G, P84E
notes: Human IgG1/kappa; tested as HEK293 EBNA supernatant; also called H1K1
As for B8, the Kd is 1.02 nM, the “Relative KD” value stood at 0.77 and the koff worked out at 0.00128 s⁻¹.

B9: VH5/VK1 humanized 11C12 antibody (antibody, human IgG1, kappa, V domains shown)
VH: B1 VH with T3Q, R18L, T63S, S88A, M93V, S115L
VL: B4 VL with D9G, S25A, P84E, V89S
notes: Human IgG1/kappa; tested as HEK293 EBNA supernatant; also called H5K1
For B9, the Kd came out at 0.947 nM, the “Relative KD” value was found to be 0.71 and the koff was found to be 0.00127 s⁻¹.

B10: VH1/VK4 humanized 11C12 antibody (antibody, human IgG1, kappa)
heavy: not shown
light: B2 light with A25S
notes: Human IgG1/kappa; tested as HEK293 EBNA supernatant; also called H1K4
On to B10, for which the Kd was 1.1 nM, the “Relative KD” value is 0.83 and the koff worked out at 0.00137 s⁻¹.

B11: VH2/VK4 humanized 11C12 antibody (antibody, human IgG1, kappa)
heavy: not shown
light: B2 light with A25S
notes: Human IgG1/kappa; tested as HEK293 EBNA supernatant; also called H2K4
Consider B11, for which the Kd worked out at 0.917 nM, the “Relative KD” value worked out at 0.69 and the koff came out at 0.00126 s⁻¹.

B12: VH6/VK1 humanized 11C12 antibody (antibody, human IgG1, kappa, V domains shown)
VH: B1 VH with T3Q, R18L, Y50S, T63S, S88A, M93V, S115L
VL: B4 VL with D9G, S25A, P84E, V89S
notes: Human IgG1/kappa; tested as HEK293 EBNA supernatant; also called H6K1
Consider B12, for which the Kd was found to be 10 nM, the “Relative KD” value is 7.52 and the koff was found to be 0.165 s⁻¹.

B13: VH2/VK1 humanized 11C12 antibody (antibody, human IgG1, kappa)
heavy: not shown
light: B2 light with D9G, P84E
notes: Human IgG1/kappa; tested as HEK293 EBNA supernatant; also called H2K1
As to B13, the Kd amounted to 0.89 nM, the “Relative KD” value stood at 0.67 and the koff was 0.0012 s⁻¹.

B14: VH6/VK2 humanized 11C12 antibody (antibody, human IgG1, kappa, V domains shown)
VH: B1 VH with T3Q, R18L, Y50S, T63S, S88A, M93V, S115L
VL: B4 VL with S25A, V89S
notes: Human IgG1/kappa; tested as HEK293 EBNA supernatant; also called H6K2
On to B14, for which the Kd turned out to be 9.49 nM, the “Relative KD” value was 7.14 and the koff is 0.165 s⁻¹.

B15: VH1/VK2 humanized 11C12 antibody (antibody, human IgG1, kappa)
heavy: not shown
light: B2 light
notes: Human IgG1/kappa; tested as HEK293 EBNA supernatant; also called H1K2
Take B15: the Kd turned out to be 0.968 nM, the “Relative KD” value came out at 0.73 and the koff came to 0.00126 s⁻¹.

B16: VH2/VK5 humanized 11C12 antibody (antibody, human IgG1, kappa)
heavy: not shown
light: B2 light with A25S, S89V
notes: Human IgG1/kappa; tested as HEK293 EBNA supernatant; also called H2K5
For the molecule B16, the Kd worked out at 1.05 nM, the “Relative KD” value stood at 0.79 and the koff stood at 0.0014 s⁻¹.

B17: VH6/VK3 humanized 11C12 antibody (antibody, human IgG1, kappa, V domains shown)
VH: B1 VH with T3Q, R18L, Y50S, T63S, S88A, M93V, S115L
VL: B4 VL with S25A
notes: Human IgG1/kappa; tested as HEK293 EBNA supernatant; also called H6K3
On to B17, for which the Kd came out at 6.52 nM, the “Relative KD” value is 4.9 and the koff was 0.341 s⁻¹.

B18: VH5/VK5 humanized 11C12 antibody (antibody, human IgG1, kappa, V domains shown)
VH: B1 VH with T3Q, R18L, T63S, S88A, M93V, S115L
VL: B4 VL
notes: Human IgG1/kappa; tested as HEK293 EBNA supernatant; also called H5K5
Turning to B18, the Kd came to 1.03 nM, the “Relative KD” value stood at 0.77 and the koff turned out to be 0.0014 s⁻¹.

B19: VH1/VK5 humanized 11C12 antibody (antibody, human IgG1, kappa)
heavy: not shown
light: B2 light with A25S, S89V
notes: Human IgG1/kappa; tested as HEK293 EBNA supernatant; also called H1K5
Take B19: the Kd stood at 1.12 nM, the “Relative KD” value is 0.84 and the koff was found to be 0.00139 s⁻¹.

B20: VH4/VK2 humanized 11C12 antibody (antibody, human IgG1, kappa, V domains shown)
VH: B1 VH with T3Q, R18L, S88A, M93V, S115L
VL: B4 VL with S25A, V89S
notes: Human IgG1/kappa; tested as HEK293 EBNA supernatant; also called H4K2
For the molecule B20, the Kd came to 0.854 nM, the “Relative KD” value is 0.64 and the koff is 0.00114 s⁻¹.

B21: VH2/VK3 humanized 11C12 antibody (antibody, human IgG1, kappa)
heavy: not shown
light: B2 light with S89V
notes: Human IgG1/kappa; tested as HEK293 EBNA supernatant; also called H2K3
With B21, the Kd stood at 0.985 nM, the “Relative KD” value was 0.74 and the koff was found to be 0.00132 s⁻¹.

B22: VH3/VK3 humanized 11C12 antibody (antibody, human IgG1, kappa)
heavy: not shown
light: B2 light with S89V
notes: Human IgG1/kappa; tested as HEK293 EBNA supernatant; also called H3K3
In the case of B22, the equilibrium dissociation constant (Kd) was 1.01 nM, the “Relative KD” value was determined as 0.76 and the koff stood at 0.00133 s⁻¹.

B23: VH4/VK5 humanized 11C12 antibody (antibody, human IgG1, kappa, V domains shown)
VH: B1 VH with T3Q, R18L, S88A, M93V, S115L
VL: B4 VL
notes: Human IgG1/kappa; tested as HEK293 EBNA supernatant; also called H4K5
With B23, the Kd amounted to 0.996 nM, the “Relative KD” value was determined as 0.75 and the koff stood at 0.00137 s⁻¹.

B24: VH2/VK2 humanized 11C12 antibody (antibody, human IgG1, kappa)
heavy: not shown
light: B2 light
notes: Human IgG1/kappa; tested as HEK293 EBNA supernatant; also called H2K2
B24: the Kd is 0.971 nM, the “Relative KD” value was determined as 0.73 and the koff turned out to be 0.00126 s⁻¹.

B25: VH0/VK1 (antibody, human IgG1, kappa, V domains shown)
VH: B1 VH with V5K, G42E, S75P, Y80F, N84T
VL: B4 VL with D9G, S25A, P84E, V89S
notes: tested as HEK supernatant; also called control antibody (chimeric heavy chain with humanized VK1 light chain)
Consider B25, for which the Kd was found to be 1.12 nM, the “Relative KD” value amounted to 0.84 and the koff was 0.00137 s⁻¹.

B26: VH4/VK1 humanized 11C12 antibody (antibody, human IgG1, kappa, V domains shown)
VH: B1 VH with T3Q, R18L, S88A, M93V, S115L
VL: B4 VL with D9G, S25A, P84E, V89S
notes: Human IgG1/kappa; tested as HEK293 EBNA supernatant; also called H4K1
With B26, the Kd was found to be 0.975 nM, the “Relative KD” value was determined as 0.73 and the koff came to 0.00129 s⁻¹.

For the origin of these results see US20240115722A1 (RUTGERS THE STATE UNIVERSITY OF NEW JERSEY, published 2024).
